Test results published in patent US20190010233A1 (JIANGSU HYAMAB PHARMACEUTICAL, published 2019).

How the values were obtained:
[1] = biological target: T1, full length cyno PD-L1 on cells (cyno, UniProt G7PSE7 19-290); assay: FACS CHO-K1-cPD-L1, 11.11 nM mAb
T1 construct: also called CHO-K1-cPD-L1
Method: (§1) Other CHO-K1 were stably transfected with a pIRES plasmid containing the nucleic acid sequence encoding full length cyno PD-L1 to generate CHO-K1 cells stably expressing cyno PD-L1 (herein referred to as CHO-K1-cPD-L1 cells). […] The culture media was aspirated, and the cells were washed twice with HBSS (Hanks Balanced Salt Solution, Invitrogen). The cells were treated with enzyme-free cell dissociation solution (Versene solution, Invitrogen) and collected. The cells were then washed twice with HBSS, cell counts were determined, and cells were resuspended with HBSS at 2×10⁶ cells/mL. Goat serum was added to the cell suspension to a final concentration of 1%, and the cells were blocked for 30 minutes on ice and then washed twice with HBSS. The cells were collected after centrifugation and resuspended in FACS buffer (HBSS+1% BSA, v/v) at 2×10⁶ cells/mL. 100 μL of the cell suspension were then added to each well of 96-well plate. 100 μL of purified anti-PD-L1 antibodies from Example 2 were added to each well of the 96-well plate and incubated for 2 hours on ice. […] The samples were washed three times with FACS buffer, and 100 μL fixation buffer (4% paraformaldehyde v/v) were added to each well and incubated for 10 minutes. The cells were then washed twice with FACS buffer and resuspended in 100 μL FACS buffer. The mean fluorescence intensity (MFI) was determined using FACS Calibur (BD), and the results are shown in FIGS. 7-8 and in Tables 10-11.

[2] = biological target: T2, full length human PD-L1 on cells (human, UniProt Q9NZQ7 19-290); assay: FACS CHO-K1-hPD-L1, 0.14 nM mAb
T2 construct: Also used as the target of the cell-based functional assays (transfected stimulator cells; PD-L1 of the cells in the mixed lymphocyte reaction); also called CHO-K1-hPD-L1; CHOK1-hPD-L1
Method: as §1

[3] = biological target: T2, full length human PD-L1 on cells; assay: FACS CHO-K1-hPD-L1, 100.00 nM mAb
[4] = biological target: T2, full length human PD-L1 on cells; assay: cell-based or functional assay
[5] = biological target: T1, full length cyno PD-L1 on cells; assay: FACS CHO-K1-cPD-L1, 0.41 nM mAb
Method: as §1

[6] = biological target: T3, human PD-L1^ECD-hFc protein (human, UniProt Q9NZQ7 19-239, biotinylated in the PD-1 binding ELISA (Table 3) and in the Octet assay (Table 12)); assay: ELISA, 10 nM mAb
T3 construct: The plain and the biotinylated protein are kept as one molecule; also called PD-L1-hFc; Immunogen A; not shown: human IgG Fc fragment (hFc)
Method: (§2) 100 μL of the diluted recombinant proteins were added to each well of 96-well plate. The plates were sealed with plastic film and incubated at 4° C. overnight. The plates were washed twice with wash buffer (PBS+0.01% (v/v) Tween20), and incubated with blocking buffer (PBS+0.01% (v/v) Tween20+1% (w/w) BSA) at room temperature for 2 hours. The blocking buffer was aspirated away, and 100 μL of purified anti-PD-L1 antibodies were added to each well and incubated for 2 hours at 37° C. The plates were washed three times with wash buffer (PBS+0.01% (v/v) Tween20). HRP-conjugated secondary antibody (Sigma) was added to each well and incubated for 2 hours at 37° C. After the plates were washed three times with wash buffer, 100 μL TMB substrate were added to each well, and the plates were incubated for 30 minutes at room temperature. 100 μL stop solution (0.1N HCl) was added to each well to stop the reaction.

[7] = biological target: T1, full length cyno PD-L1 on cells; assay: FACS CHO-K1-cPD-L1, 100.00 nM mAb
Method: as §1

[8] = biological target: T1, full length cyno PD-L1 on cells; assay: FACS CHO-K1-cPD-L1, 33.33 nM mAb
Method: as §1

[9] = biological target: T3, human PD-L1^ECD-hFc protein; assay: BLI Octet Red 96, biotinylated PD-L1-hFc on SA sensor
Method: Dissociation constants were determined by Octed red 96 (Fortiebio). The detailed operation and methods were followed according to the specifications of the instrument provided by the manufacturer. Briefly, a streptavidin sensor (SA sensor, Fortiebio) was used for the affinity determination. […] The reaction mixture was further incubated in PBS buffer (pH 7.4) containing 0.1% (v/w) BSA and 0.02% (v/v) Tween20 at 30° C. for 5 minutes.

[10] = biological target: T1, full length cyno PD-L1 on cells; assay: FACS CHO-K1-cPD-L1, 10 nM mAb
Method: as §1

[11] = biological target: T1, full length cyno PD-L1 on cells; assay: FACS CHO-K1-cPD-L1, 0.1 nM mAb
Method: as §1

[12] = biological target: T1, full length cyno PD-L1 on cells; assay: FACS CHO-K1-cPD-L1, 1 nM mAb
Method: as §1

[13] = biological target: T1, full length cyno PD-L1 on cells; assay: FACS CHO-K1-cPD-L1, 0.01 nM mAb
Method: as §1

[14] = biological target: T2, full length human PD-L1 on cells; assay: FACS CHO-K1-hPD-L1, 0.0001 nM mAb
Method: as §1

[15] = biological target: T2, full length human PD-L1 on cells; assay: FACS CHO-K1-hPD-L1, 0.001 nM mAb
Method: as §1

[16] = biological target: T3, human PD-L1^ECD-hFc protein; assay: ELISA, 0.001 nM mAb
Method: as §2

T3 sequence (Q9NZQ7 19-239): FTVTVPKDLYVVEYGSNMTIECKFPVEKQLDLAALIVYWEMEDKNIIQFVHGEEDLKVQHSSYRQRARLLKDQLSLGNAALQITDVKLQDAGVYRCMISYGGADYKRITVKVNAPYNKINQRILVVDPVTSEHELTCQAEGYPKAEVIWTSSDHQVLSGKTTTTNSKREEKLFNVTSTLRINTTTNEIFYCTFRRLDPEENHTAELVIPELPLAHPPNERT
T2 sequence (Q9NZQ7 19-290 limits assumed): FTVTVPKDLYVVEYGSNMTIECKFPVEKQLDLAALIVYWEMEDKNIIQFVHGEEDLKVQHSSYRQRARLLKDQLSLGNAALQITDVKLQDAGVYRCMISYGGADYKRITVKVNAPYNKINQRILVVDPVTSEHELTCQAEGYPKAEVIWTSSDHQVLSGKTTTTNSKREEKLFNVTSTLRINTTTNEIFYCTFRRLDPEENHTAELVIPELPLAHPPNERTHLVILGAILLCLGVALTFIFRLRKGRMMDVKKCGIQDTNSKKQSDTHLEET
T1 sequence (G7PSE7 entry or part of it limits assumed): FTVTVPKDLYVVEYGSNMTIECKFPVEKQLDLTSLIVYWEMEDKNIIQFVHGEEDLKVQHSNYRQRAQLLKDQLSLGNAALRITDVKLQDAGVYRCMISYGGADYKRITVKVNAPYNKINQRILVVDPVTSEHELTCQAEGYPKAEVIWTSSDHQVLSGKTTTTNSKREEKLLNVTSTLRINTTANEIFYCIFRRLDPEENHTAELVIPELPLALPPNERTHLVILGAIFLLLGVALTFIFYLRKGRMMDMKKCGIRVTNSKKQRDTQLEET

Binder | Mean fluorescence intensity [1] | Mean fluorescence intensity [2] | Mean fluorescence intensity [3] | IFN-γ (pg/mL), PBMC stimulation, 0.001 µg/mL mAb [4] | IFN-γ (pg/mL), PBMC stimulation, 0.01 µg/mL mAb [4] | IFN-γ (pg/mL), PBMC stimulation, 0.1 µg/mL mAb [4] | IFN-γ (pg/mL), PBMC stimulation, 1 µg/mL mAb [4] | Mean fluorescence intensity [5] | OD450 nm [6] | Mean fluorescence intensity [7] | Mean fluorescence intensity [8] | Kd [9] | koff [9] | kon [9] | IFN-γ (pg/mL), PBMC stimulation, 10 µg/mL mAb [4] | Mean fluorescence intensity [10] | Mean fluorescence intensity [11] | Mean fluorescence intensity [12] | Mean fluorescence intensity [13] | Mean fluorescence intensity [14] | further results
chimeric anti-PD-L1 antibody 73D3G2 (antibody, V domains shown, Purified from hybridoma of Harbour H2L2 mice: human variable regions, rat constant regions) VH: EVQLVESGGGLVQPGGSLRLSCAASGFTFNTYWMNWVRQAPGRGLEWVANIKQDGGEKYYVDSVKGRFTISRDNAKNSLYLQMNSLRAEDTAMYYCARDGRSWYPDAFDIWGQGTVVTVSS VL: DIQMTQSPSTLSASVGDRVTITCRASQSISTWLAWYQQKLGKAPKLLIYEVSILESGVPSRFSGSGSGTEFTLTISSLQPDDFATYYCQQYHSFSSFGGGTRVEIK | 136 | 44.3 | 124 | 3830 pg/mL | 3280 pg/mL | 9560 pg/mL | 8760 pg/mL | 83.2 | 2.09 | 137 | 137 | < 0.001 nM | < 1e-07 s⁻¹ | 398000 M⁻¹ s⁻¹ |  |  |  |  |  |  | 
chimeric anti-PD-L1 antibody 127D2F3 (antibody, V domains shown, Purified from hybridoma of Harbour H2L2 mice: human variable regions, rat constant regions) VH: EVQLVESGGGLVQPGGSLRLSCVASGFTFSSYWMSWVRQAPGKGLEWVANIKQDGSEKYYVDSVKGRLTISRDNAKNSLYLQMKSLRAEDTAVYYCARDPIYSSYFDYWGQGILVTVSS VL: DIQMTQSPSSLSASVGDRVTITCRASQSISNYLNWYQQKPGKAPKLLIYAASSLQSGVPSRFSGSGSGTDFTLTISSLQPEDFAAYYCQQSYGIPFTFGPGTKVDIK |  |  | 234 | 3380 pg/mL | 7030 pg/mL | 7610 pg/mL | 8100 pg/mL |  | 2.7 | 117 |  | < 0.001 nM | < 1e-07 s⁻¹ | 368000 M⁻¹ s⁻¹ | 10100 pg/mL | 105 | 14.3 | 80.5 | 3.08 | 4.04 | Mean fluorescence intensity [15]: 2.1; OD450 nm [16]: 0.24
chimeric anti-PD-L1 antibody 78A11F6 (antibody, V domains shown, Purified from hybridoma of Harbour H2L2 mice: human variable regions, rat constant regions) VH: EVQLVESGGGLVQPGGSLRLSCAASGITFSSYWMSWVRQTPGKGLEWVANIKQDGSEKYYVKSVKGRFTISRDNAKNSLYLQMNSLRAEDTAVYYCVRDRAVPGTGAFDIWGQGTMVIVSS VL: DIQMTQSPSTLSASVGDRVTITCRASQSISNWLAWYQQKPGKAPKLLIYKASSLESGVPSRFSGSGSGTEFTLTISSLQPDDFATYYCQQYDSSLFTFGQGTKLEIK | 142 | 51.5 | 232 | 3740 pg/mL | 11100 pg/mL | 6100 pg/mL | 13000 pg/mL | 74.5 | 1.72 | 144 | 143 | 0.148 nM | 3.64e-05 s⁻¹ | 245000 M⁻¹ s⁻¹ |  |  |  |  |  |  | 
chimeric anti-PD-L1 antibody 73G11B3 (antibody, V domains shown, Purified from hybridoma of Harbour H2L2 mice: human variable regions, rat constant regions) VH: EVQLVESGGGLVQPGGSLRLSCVVSGFTFSSYWMSWVRQTPGKGLEWVANIKQDGSEKYYVDSVKGRLTISRDNAKNSLYLQMNSLRAEDTAVYYCVRDRAVPGTGALDIWGQGTMVTVSS VL: not shown |  |  | 215 | 2400 pg/mL | 5700 pg/mL | 6290 pg/mL | 7860 pg/mL |  | 2.73 | 107 |  | 0.116 nM | 3.95e-05 s⁻¹ | 341000 M⁻¹ s⁻¹ | 10700 pg/mL | 99.2 | 19.8 | 94.9 | 3.83 | 1.87 | Mean fluorescence intensity [15]: 1.88; OD450 nm [16]: 0.21

Second part, led by results:

Mean fluorescence intensity [1] | Mean fluorescence intensity [2] | Mean fluorescence intensity [3] | IFN-γ (pg/mL), PBMC stimulation, 0.001 µg/mL mAb [4] | IFN-γ (pg/mL), PBMC stimulation, 0.01 µg/mL mAb [4] | IFN-γ (pg/mL), PBMC stimulation, 0.1 µg/mL mAb [4] | IFN-γ (pg/mL), PBMC stimulation, 1 µg/mL mAb [4] | Mean fluorescence intensity [5] | OD450 nm [6] | Mean fluorescence intensity [7] | Mean fluorescence intensity [8] | Kd [9] | koff [9] | kon [9] | IFN-γ (pg/mL), PBMC stimulation, 10 µg/mL mAb [4] | Mean fluorescence intensity [10] | Mean fluorescence intensity [11] | Mean fluorescence intensity [12] | Mean fluorescence intensity [13] | Mean fluorescence intensity [14] | Binder | further results
136 | 73.2 | 182 | 1640 pg/mL | 3380 pg/mL | 5850 pg/mL | 7570 pg/mL | 83.8 | 1.56 | 120 | 133 | 0.245 nM | 0.000368 s⁻¹ | 1.5e+06 M⁻¹ s⁻¹ |  |  |  |  |  |  | chimeric anti-PD-L1 antibody 105C5D7 (antibody, V domains shown, Purified from hybridoma of Harbour H2L2 mice: human variable regions, rat constant regions) VH: EVQLVESGGGLVQPGGSLRLSCAASGFTFSSYWMSWVRQAPGKGLEWVANIKQDGNEKYYVDSVKGRFTISRDNAKNSLYLQMNSLRAEDTAVYYCARNIKWGDAFDIWGQGTMVTVSS VL: DIQMTQSPSSLSASVGDRVTITCRASQSISSYLNWYQQKPGKAPKLLIYAASSLQSGVPSRFSGSGSGTDFTLTISSLQPEDFAIYSCQQSYSIPLTFGGGTKVEIK | 
 |  | 146 | 602 pg/mL | 501 pg/mL | 7470 pg/mL | 8300 pg/mL |  | 2.69 | 87.9 |  | 0.0519 nM | 2.63e-05 s⁻¹ | 506000 M⁻¹ s⁻¹ | 15700 pg/mL | 82.3 | 17 | 77.2 | 3.38 | 3.58 | chimeric anti-PD-L1 antibody 192D9E7 (antibody, V domains shown, Purified from hybridoma of Harbour H2L2 mice: human variable regions, rat constant regions) VH: EVQLVESGGGLVQPGGSLRLSCAASGFTFSSYWMSWVRQAPGKGLEWVADIKQDGSEKYYVDSVKGRFTISRDNAKNSLYLQMNSLRAEDTAVYYCTRDKPHWGGVMDAWGQGTSVTVSS VL: not shown | Mean fluorescence intensity [15]: 2.66; OD450 nm [16]: 0.25
